Data on two substances can be found in patent CN113546252A.

This assay deals with 人PCSK9-D347Y (human) (UniProt Q8NBP7). Kind of assay: cell-based or functional assay.

In the case of Evolocumab (antibody), the 促LDL内吞 (HepG2细胞LDL摄取法) EC50 stood at 0.151 µg/mL.

As to JS002 (antibody), the 促LDL内吞 (HepG2细胞LDL摄取法) EC50 was determined as 0.0927 µg/mL.
